# Laboratory results published in patent publication US11441131B2, “Heparosan synthases and use thereof for saccharide synthesis” (The Regents of the University of California, priority 2019, dated 2022).
# Assays:
# [1] = Protein expression and purification; parameters: species or system E. coli BL21 (DE3); details: per L culture
# Method: Protein expression and purification. The plasmid-bearing E. coli BL21(DE3) cells were cultured in 1 L of LB-rich media (10 g/L tryptone, 5 g/L yeast extract and 10 g/L NaCl) supplemented with ampicillin (100 μg/mL). Expression of the target protein was achieved by inducing the E. coli culture with 0.1 mM of isopropyl-1-thio-β-D-galactopyranoside (IPTG) when OD600 nm reached 0.8-1.0, followed by incubating at 20° C. for 20 h with shaking at 250 rpm in a C25KC incubator shaker (New Brunswick Scientific, Edison, N.J.). Histidine-tagged target proteins were purified from cell lysate. To obtain the cell lysate, cell pellet harvested by centrifugation at 2,795 g for 50 min was resuspended (25 mL/L cell culture) in lysis buffer (Tris-HCl, 100 mM, pH 8.0 with 0.1% Triton X-100). Sonication protocol was 2 s (sonication)/3 s (rest) for a total of 6 min on ice. Lysed cells were centrifuged at 5,000 g for 50 min and the supernatant (lysate) was collected. Purification of histidine-tagged proteins from the lysate was achieved using a Ni′-resin column. The column was pre-equilibrated with 10 column volumes of binding buffer (5 mM imidazole, 0.5 M NaCl, 50 mM Tris-HCl, pH 7.5). The lysate was then loaded, and the column was washed with 10 column volumes of binding buffer and 10 column volumes of washing buffer (16 mM imidazole, 0.5 M NaCl, 50 mM Tris-HCl, pH 7.5). The target protein was eluted with Tris-HCl buffer (50 mM, pH 7.5) containing imidazole (200 mM) and NaCl (0.5 M). The fractions containing the purified enzymes were collected, and stored at 4° C.
# [2] = Effect of UDP concentration on reverse glycosylation activity; type: biochemical; details: O6 1 mM, enzyme 15 μM
# Method: Reactions were stopped by heating reaction mixtures at 70° C. for 10 min followed by incubation on ice for 30 min, and centrifugation at 11,337 g for 15 min. Supernatants were analyzed using an Infinity 1290 II HPLC equipped with 1260 Infinity II Diode Array Detector WR (monitored at 254 nm, Agilent Technologies, CA). An AdvanceBio Glycan Mapping column (1.8 μm particle, 2.1×150 mm, Agilent Technologies, CA) was used with a gradient (13 min) of 0.5 mL/min for 90% to 70% acetonitrile and a solution of water with 0.1% TFA for analysis.
# Isoelectric point (pI) = type: physicochemical
# [3] = Relative activity comparison with acceptor GlcAβProNHFmoc (O1) and UDP-GlcNAc; type: biochemical; details: for GlcNAcα1-4GlcAβProNHFmoc (%): percentage conversion, 30 min, HPLC
# Method: (§1) Reactions were stopped by heating reaction mixtures at 70° C. for 10 min, followed by incubation on ice for 30 min and centrifugation at 11,337 g for 15 min.
# [4] = Relative activity comparison with acceptor GlcNAcαProNHFmoc and UDP-GlcA; type: biochemical; details: enzyme 1.5 mg/mL; percentage conversion, 30 min, HPLC
# Method: as §1
# [5] = Behaviour during dialysis; type: physicochemical
molecule,measurement,setting,value
"His6-PmHS2: N-terminal His6-tagged wild-type Pasteurella multocida heparosan synthase 2 (SEQ ID NO:6) (protein, N-terminal His6 tag) MGSSHHHHHHSSGLVPRGSHMKGKKEMTQKQMTKNPPQHEKENELNTFQNKIDSLKTTLNKDIISQQTLLAKQDSKHPLSESLENENKLLLKQLQLVLQEFEKIYTYNQALEAKLEKDKQTTSITDLYNEVAKSDLGLVKETNSANPLVSIIMTSHNTAQFIEASINSLLLQTYKNIEIIIVDDDSSDNTFEIASRIANTTSKVRVFRLNSNLGTYFAKNTGILKSKGDIIFFQDSDDVCHHERIERCVNILLANKETIAVRCAYSRLAPETQHIIKVNNMDYRLGFITLGMHRKVFQEIGFFNCTTKGSDDEFFHRIAKYYGKEKIKNLLLPLYYNTMRENSLFTDMVEWIDNHNIIQKMSDTRQHYATLFQAMHNETASHDFKNLFQFPRIYDALPVPQEMSKLSNPKIPVYINICSIPSRIAQLQRIIGILKNQCDHFHIYLDGYVEIPDFIKNLGNKATVVHCKDKDNSIRDNGKFILLEELIEKNQDGYYITCDDDIIYPSDYINTMIKKLNEYDDKAVIGLHGILFPSRMTKYFSADRLVYSFYKPLEKDKAVNVLGTGTVSFRVSLFNQFSLSDFTHSGMADIYFSLLCKKNNILQICISRPANWLTEDNRDSETLYHQYRDNDEQQTQLIMENGPWGYSSIYPLVKNHPKFTDLIPCLPFYFL",expression level,[1],17 to 20 mg/L
same,O6 (%),[2]; UDP 0 (nM),100%
same,O1 (%),[2]; UDP 1 (nM),3.3%
same,O2 (%),[2]; UDP 1 (nM),2.7%
same,O3 (%),[2]; UDP 1 (nM),1.4%
same,O4 (%),[2]; UDP 1 (nM),9.6%
same,O5 (%),[2]; UDP 1 (nM),3.0%
same,O6 (%),[2]; UDP 1 (nM),64.2%
same,O8 (%),[2]; UDP 1 (nM),13.5%
same,O10 (%),[2]; UDP 1 (nM),1.9%
same,O1 (%),[2]; UDP 5 (nM),3.9%
same,O2 (%),[2]; UDP 5 (nM),5.5%
same,O3 (%),[2]; UDP 5 (nM),1.1%
same,O4 (%),[2]; UDP 5 (nM),8.8%
same,O5 (%),[2]; UDP 5 (nM),4.8%
same,O6 (%),[2]; UDP 5 (nM),52.3%
same,O7 (%),[2]; UDP 5 (nM),0.4%
same,O8 (%),[2]; UDP 5 (nM),16.0%
same,O10 (%),[2]; UDP 5 (nM),5.7%
same,O12 (%),[2]; UDP 5 (nM),0.7%
same,O1 (%),[2]; UDP 10 (nM),3.1%
same,O2 (%),[2]; UDP 10 (nM),9.0%
same,O3 (%),[2]; UDP 10 (nM),0.6%
same,O4 (%),[2]; UDP 10 (nM),17.7%
same,O5 (%),[2]; UDP 10 (nM),9.1%
same,O6 (%),[2]; UDP 10 (nM),36.2%
same,O7 (%),[2]; UDP 10 (nM),1.1%
same,O8 (%),[2]; UDP 10 (nM),16.3%
same,O9 (%),[2]; UDP 10 (nM),0.4%
same,O10 (%),[2]; UDP 10 (nM),4.6%
same,O12 (%),[2]; UDP 10 (nM),1.3%
same,pI,Isoelectric point (pI),6.83
same,efficiency of GlcAβProNHFmoc (O1) over GlcNAcαProNHFmoc as substrate in disaccharide production,[3],157 fold
same,GlcNAcα1-4GlcAβProNHFmoc (%),[3]; enzyme 0.06 mg/mL,64.5 ± 1.0%
same,GlcNAcα1-4GlcAβProNHFmoc (%),[3]; enzyme 1.5 mg/mL,100%
same,GlcAβ1-4GlcNAcαProNHFmoc (%),[4],10.3 ± 0.3%
same,behaviour during dialysis,[5],precipitated easily during dialysis
